Reference: PMC9729729, “Development of anti-membrane type 1-matrix metalloproteinase nanobodies as immunoPET probes for triple negative breast cancer imaging” (Frontiers in Medicine, 2022)

Tests used:
[1] = target: T1, catalytic domain of human MT1-MMP (residues 119-290) (Homo sapiens, UniProt P50281); test: ELISA; monoclonal phage ELISA; MaxiSorp plates coated with CAT-MT1-MMP, MT2-MMP or MT3-MMP at 4°C overnight (BSA as negative control); culture supernatants with phages applied; anti-M13-HRP, OPD, OD490; details: one partner purified
T1 construct: membrane type 1-matrix metalloproteinase (MT1-MMP), human, catalytic domain, residues 119-290, expressed from pET3a; also called CAT-MT1-MMP; catalytic domain of membrane type 1-matrix metalloproteinase

[2] = target: T1, catalytic domain of human MT1-MMP …; test: ELISA; MaxiSorp plates coated overnight at 4°C with CAT-MT1-MMP; blocked with 3% BSA in PBS; serial dilutions of nanobodies, 90 min at 37°C; HRP anti-HA mAb, TMB, OD450; details: both partners purified
[3] = target: extracellular domain (ed) of MT1-MMP, Ala21-Ser538, Arg108Pro (Homo sapiens (species ; …, UniProt P50281, Arg108Pro); test: SPR; edMT1-MMP amine-coupled on a CM5 chip (104 RU); nanobody 16-250 nM, 3 min at 30 μl/min, 30 min dissociation; HBS-EP+ buffer; 25°C; Biacore X100; 1:1 binding model; details: both partners purified

B1: 3CMP75 displayed on phage (monoclonal phage clone) (VHH)
VHH: QVQLQESGGGLVQAGGSLRLSCTASGRTFSSNAMAWFRLAPGKEREFVAAISGNGGSTTYADSVKGRVTISRDNAKNTVYLHMSSLKPEDTAVYYCNQRNFGRDGTLGDYWGNGTQVTVSS
notes: also called 3CMP75 phage clone; source: E. coli TG1 with phagemid, VCS-M13 helper phage, culture supernatant
B1: binds [1].

B2: [^68Ga]Ga-NOTA-3CMP75 (VHH)
VHH: B1 VHH
notes: also called radiolabeled-NOTA conjugate of 3CMP75; source: E. coli WK6 periplasm, purified, conjugated with p-SCN-Bn-NOTA and labelled with 68Ga, PD-10 purified
B2: binds [2].

B3: nanobody 3CMP75 (CDR3 group 6), purified (VHH)
VHH: B1 VHH
notes: Llama-derived VHH selected by phage display against CAT-MT1-MMP; also called Nb 3CMP75; 2CMP75 (as printed in two methods paragraphs); source: E. coli WK6 periplasm (pMECS), purified (IMAC HisTrap, SEC Superdex 75)
With B3 the binding result [2] was “binds” and the Kd [3] was 35 ± 3 nM.

B4: 3TPA14 displayed on phage (monoclonal phage clone) (VHH)
VHH: QVQLQESGGGLVQAGGSLRLSCAASGLILSGFSTGWFRQAPGKEREFLSTISSAGTRTYYADSVKGRFTISRDNAKNTVYLQMNRLKPEDAGVYYCTGYGRRSMPALRPEEWTYWGQGTQVTVSS
notes: also called 3TPA14 phage clone; source: E. coli TG1 with phagemid, VCS-M13 helper phage, culture supernatant
B4: binds [1].

B5: [^68Ga]Ga-NOTA-3TPA14 (VHH)
VHH: B4 VHH
notes: also called radiolabeled-NOTA conjugate of 3TPA14; source: E. coli WK6 periplasm, purified, conjugated with p-SCN-Bn-NOTA and labelled with 68Ga, PD-10 purified
B5: binds [2].

B6: nanobody 3TPA14 (CDR3 group 1), purified (VHH)
VHH: B4 VHH
notes: Llama-derived VHH selected by phage display against CAT-MT1-MMP; also called Nb 3TPA14; source: E. coli WK6 periplasm (pMECS), purified (IMAC HisTrap, SEC Superdex 75)
B6 was tested, and the binding result [2] was “binds” and the Kd [3] was 15.8 ± 0.3 nM.
